The chains are these.
B1: Calcium-binding protein 39 (Homo sapiens), Q9Y376 (parent)
chain: MPFPFGKSHKSPADIVKNLKESMAVLEKQDISDKKAEKATEEVSKNLVAMKEILYGTNEKEPQTEAVAQLAQELYNSGLLSTLVADLQLIDFEGKKDVAQIFNNILRRQIGTRTPTVEYICTQQNILFMLLKGYESPEIALNCGIMLRECIRHEPLAKIILWSEQFYDFFRYVEMSTFDIASDAFATFKDLLTRHKLLSAEFLEQHYDRFFSEYEKLLHSENYVTKRQSLKLLGELLLDRHNFTIMTKYISKPENLKLMMNLLRDKSRNIQFEAFHVFKVFVANPNKTQPILDILLKNQAKLIEFLSKFQNDRTEDEQFNDEKTYLVKQIRDLKRPAQQEA

One assay covers variants of B1. As to conditions: with STK26, Q9P289-1.
STK26, Q9P289-1, sequence (Q9P289 whole entry, looked up): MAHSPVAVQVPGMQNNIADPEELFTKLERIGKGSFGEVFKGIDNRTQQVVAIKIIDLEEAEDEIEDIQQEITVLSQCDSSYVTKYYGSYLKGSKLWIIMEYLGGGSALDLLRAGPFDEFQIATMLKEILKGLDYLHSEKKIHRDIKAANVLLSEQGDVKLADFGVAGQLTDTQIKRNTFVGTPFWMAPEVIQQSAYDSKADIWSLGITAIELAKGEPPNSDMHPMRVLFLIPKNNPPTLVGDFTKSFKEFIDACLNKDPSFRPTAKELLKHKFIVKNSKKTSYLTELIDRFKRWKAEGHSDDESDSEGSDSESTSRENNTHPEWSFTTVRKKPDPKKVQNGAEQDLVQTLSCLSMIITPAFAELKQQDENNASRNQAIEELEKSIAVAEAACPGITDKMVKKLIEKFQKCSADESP
On to MPFPFGKSHKSPADIVKNLKESMAVLEKQDISDKKAEKATEEVSKNLVAMKEILYGTNEKEPQTEAVAQLAQELYNSGLLSTLVADLQLIDFEGKKDVAQIFNNILRRQIGTRTPTVEYICTQQNILFMLLKGYESPEIALNCGIMLRECIRHEPLAKIILWSEQFYDFFRYVEMSTEDIASDAFATFKDLLTRHKLLSAEFLEQHYDRFFSEYEKLLHSENYVTKRQSLKLLGELLLDRHNFTIMTKYISKPENLKLMMNLLRDKSRNIQFEAFHVFKVFVANPNKTQPILDILLKNQAKLIEFLSKFQNDRTEDEQFNDEKTYLVKQIRDLKRPAQQEA [F178E], for which the “effect of a mutation on the interaction” value was “decreasing interaction strength”. In the case of MPFPFGKSHKSPADIVKNLKESMAVLEKQDISDKKAEKATEEVSKNLVAMKEILYGTNEKEPQTEAVAQLAQELYNSGLLSTLVADLQLIDFEGKKDVAQIFNNILRRQIGTRTPTVEYICTQQNILFMLLKGYESPEIALNCGIMLRECIRHEPLAKIILWSEQFYDFFRYVEMSTFDIASDAFATFKDLLTRHKLLSAEFLEQHYDRFFSEYEKLLHSENYVTKAQSLKLLGELLLDRHNFTIMTKYISKPENLKLMMNLLRDKSRNIQFEAFHVFKVFVANPNKTQPILDILLKNQAKLIEFLSKFQNDRTEDEQFNDEKTYLVKQIRDLKRPAQQEA [R227A], the “effect of a mutation on the interaction” value is reported as “decreasing interaction strength”. With MPFPFGKSHKSPADIVKNLKESMAVLEKQDISDKKAEKATEEVSKNLVAMKEILYGTNEKEPQTEAVAQLAQELYNSGLLSTLVADLQLIDFEGKKDVAQIFNNILRRQIGTRTPTVEYICTQQNILFMLLKGYESPEIALNCGIMLRECIRHEPLAKIILWSEQFYDFFRYVEMSTFDIASDAFATFKDLLTRHKLLSAEFLEQHYDRFFSEYEKLLHSENAVTKRQSLKLLGELLLDRHNFTIMTKYISKPENLKLMMNLLRDKSRNIQFEAFHVFKVFVANPNKTQPILDILLKNQAKLIEFLSKFQNDRTEDEQFNDEKTYLVKQIRDLKRPAQQEA [Y223A], the “effect of a mutation on the interaction” value is listed as “decreasing interaction strength”. Turning to MPFPFGKSHKSPADIVKNLKESMAVLEKQDISDKKAEKATEEVSKNLVAMKEILYGTNEKEPQTEAVAQLAQELYNSGLLSTLVADLQLIDFEGKKDVAQIFNNILRRQIGTRTPTVEYICTQQNILFMLLKGYESPEIALNCGIMLRECIRHEPLAKIILWSEQFYDFFRYVEMSTEDIASDAFATFKDLLTRHKLLSAEFLEQHYDRFFSEYEKLLHSENYETKRQSLKLLGELLLDRHNFTIMTKYISKPENLKLMMNLLRDKSRNIQFEAFHVFKVFVANPNKTQPILDILLKNQAKLIEFLSKFQNDRTEDEQFNDEKTYLVKQIRDLKRPAQQEA [F178E;V224E], the “effect of a mutation on the interaction” value was “decreasing interaction strength”. Still for that read-out and setting: to MPFPFGKSHKSPADIVKNLKESMAVLEKQDISDKKAEKATEEVSKNLVAMKEILYGTNEKEPQTEAVAQLAQELYNSGLLSTLVADLQLIDFEGKKDVAQIFNNILRRQIGTRTPTVEYICTQQNILFMLLKGYESPEIALNCGIMLRECIRHEPLAKIILWSEQFYDFFRYVEMSTFDIASDAFATFKDLLTRHKLLSAEFLEQHYDRFFSEYEKLLHSENYVTKRQSLKLLGELLLDRHNFTIMTKYISKPENLKLMENLLRDKSRNIQFEAFHVFKVFVANPNKTQPILDILLKNQAKLIEFLSKFQNDRTEDEQFNDEKTYLVKQIRDLKRPAQQEA [M260E] belongs “decreasing interaction strength”.

The variants in a further assay derive from B1. The settings on record: with STK26, Q9P289-1. The source holds these as a separate data set.
Regarding MPFPFGKSHKSPADIVKNLKESMAVLEKQDISDKKAEKATEEVSKNLVAMKEILYGTNEKEPQTEAVAQLAQELYNSGLLSTLVADLQLIDFEGKKDVAQIFNNILRRQIGTRTPTVEYICTQQNILFMLLKGYESPEIALNCGIMLRECIRHEPLAKIILWSEQFYDFFRYVEMSTEDIASDAFATFKDLLTRHKLLSAEFLEQHYDRFFSEYEKLLHSENYETKRQSLKLLGELLLDRHNFTIMTKYISKPENLKLMMNLLRDKSRNIQFEAFHVFKVFVANPNKTQPILDILLKNQAKLIEFLSKFQNDRTEDEQFNDEKTYLVKQIRDLKRPAQQEA [F178E;V224E], the “effect of a mutation on the interaction” value is “disrupting interaction strength”. On the same count and under the same terms, then MPFPFGKSHKSPADIVKNLKESMAVLEKQDISDKKAEKATEEVSKNLVAMKEILYGTNEKEPQTEAVAQLAQELYNSGLLSTLVADLQLIDFEGKKDVAQIFNNILRRQIGTRTPTVEYICTQQNILFMLLKGYESPEIALNCGIMLRECIRHEPLAKIILWSEQFYDFFRYVEMSTFDIASDAFATFKDLLTRHKLLSAEFLEQHYDRFFSEYEKLLHSENYVTKRQSLKLLGELLLDRHNFTIMTKYISKPENLKLMENLLRDKSRNIQFEAFHVFKVFVANPNKTQPILDILLKNQAKLIEFLSKFQNDRTEDEQFNDEKTYLVKQIRDLKRPAQQEA [M260E], with “disrupting interaction strength”.
